Test [1] has as its target T1, human PMEL (Homo sapiens, UniProt P40967).
T1 sequence (P40967 25-661): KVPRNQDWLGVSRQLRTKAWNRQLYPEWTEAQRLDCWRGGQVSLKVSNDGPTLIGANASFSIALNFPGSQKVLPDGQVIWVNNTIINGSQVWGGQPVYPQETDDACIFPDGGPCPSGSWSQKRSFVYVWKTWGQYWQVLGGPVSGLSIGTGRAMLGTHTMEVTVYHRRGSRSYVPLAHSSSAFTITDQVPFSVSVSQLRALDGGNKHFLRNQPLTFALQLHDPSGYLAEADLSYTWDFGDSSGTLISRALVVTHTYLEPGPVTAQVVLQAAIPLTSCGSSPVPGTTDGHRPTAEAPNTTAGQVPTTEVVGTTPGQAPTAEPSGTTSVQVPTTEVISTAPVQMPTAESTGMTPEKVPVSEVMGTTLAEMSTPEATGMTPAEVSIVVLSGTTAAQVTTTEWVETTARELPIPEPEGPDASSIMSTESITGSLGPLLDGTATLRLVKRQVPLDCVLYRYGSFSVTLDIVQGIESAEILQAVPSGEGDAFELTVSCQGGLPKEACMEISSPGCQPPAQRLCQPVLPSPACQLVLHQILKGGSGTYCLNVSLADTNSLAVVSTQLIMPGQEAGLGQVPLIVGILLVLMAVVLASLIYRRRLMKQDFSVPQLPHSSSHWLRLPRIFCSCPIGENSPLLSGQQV
Put plainly: SPR epitope binning (competitive binding assay, Biacore T200). To be noted: FIG. 20B-20C. An excerpt:
SPR was used to assess epitope binning for anti-PMEL antibodies on a T200 Biacore instrument (catalog #28975001, GE Healthcare Life Sciences).
Surface Plasmon Resonance (SPR) is a technique to measure bimolecular interactions in real-time in a label free environment. Molecules are immobilized on a sensor surface over which a sample solution flows. The interaction between the immobilized molecule and the flowing sample causes a refractive index change. The refractive index change is an altering of the angle at which reduced intensity polarized light is reflected from the supporting glass plane. This angle change is caused by binding or dissociation of molecules from the sensor surface and is proportional to the mass of bound material and is recorded by the instrument in a sensorgram. […] From the association and dissociation event responses, an association rate (ka), a dissociation rate (kd) and an overall affinity (KD) are determined. For epitope binning, KDs are not determined.
In the first step, G1 LC 3J and 17A9 antibodies were directly immobilized onto a CM5 chip surface via Amine Coupling to achieve approximately 2000RU respectively on Fc2 and Fc3. […] The immobilized antibodies on Fc2 and Fc3 are the base antibodies in the experiment […]
The data was analyzed using the Biacore T200 Evaluation Software version 3.0.
In general terms: Surface plasmon resonance follows binding to a sensor surface in real time, without labels.

The target in test [2] is T2, mouse PMEL17 (Mus musculus, UniProt Q60696).
T2 construct: B16-F10 (mouse PMEL17 expressing melanoma); endogenous in cells; host or cells: B16-F10 (mouse melanoma)
T2 sequence (Q60696 24-626): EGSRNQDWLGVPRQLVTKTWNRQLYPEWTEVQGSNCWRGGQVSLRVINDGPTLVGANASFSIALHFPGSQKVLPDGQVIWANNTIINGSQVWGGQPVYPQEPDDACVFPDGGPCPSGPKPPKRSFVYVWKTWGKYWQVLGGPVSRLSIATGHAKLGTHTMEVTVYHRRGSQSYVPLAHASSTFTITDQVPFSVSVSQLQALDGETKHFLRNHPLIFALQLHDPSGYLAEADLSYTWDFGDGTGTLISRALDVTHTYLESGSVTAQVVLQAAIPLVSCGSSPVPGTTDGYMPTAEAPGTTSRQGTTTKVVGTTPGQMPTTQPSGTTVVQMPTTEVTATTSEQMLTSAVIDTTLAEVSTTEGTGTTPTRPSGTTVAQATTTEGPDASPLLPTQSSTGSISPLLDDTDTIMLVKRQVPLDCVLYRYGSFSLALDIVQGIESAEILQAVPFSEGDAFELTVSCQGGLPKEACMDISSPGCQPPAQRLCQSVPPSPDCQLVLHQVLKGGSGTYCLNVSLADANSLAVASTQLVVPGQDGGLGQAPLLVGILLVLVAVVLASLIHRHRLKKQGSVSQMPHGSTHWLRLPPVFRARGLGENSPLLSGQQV
Put plainly: Apparent affinity by FACS titration of IgGs on B16-F10 melanoma cells. It is filed as binding. To be noted: Alexa Fluor. The method, then: (§1) Purified IgGs were titrated on a variety of PMEL17 expressing and PMEL17 non expressing cell lines (for control) to determine EC50 values. Cells were harvested using Accutase, adjusted to ˜4×10^6 cells/ml into FACS buffer (PBS, 3% FCS and 0.02% Na-Azide) and kept on ice to avoid internalization. 15 μl of cell suspension/well were transferred into 384 well V-bottom plates (Greiner, Cat #781280) and incubated with 15 μl of IgGs at different concentrations (most commonly from 200 to 3.5×10−3 nM) for 1 hour at 4° C., gently shaking. Following incubation, cells were washed three times with FACS buffer. After each washing step, cells were centrifuged (250×g, 5 min, 4° C.) and carefully resuspended. 15 μl of detection antibody conjugated to PE (PE-conjugated goat anti-human IgG, F(ab′)2 fragment specific, 1:150 in FACS buffer; Jackson Immuno Research, #109-116-097) or Alexa Fluor (Alexa Fluor-conjugated goat anti-human IgG, F(ab′)2 fragment specific, 1:150 in FACS buffer; Jackson Immuno Research, #109-606-097) were added and samples were incubated for 45 minutes to 1 hour on ice in the dark, gently shaking. After 3 washing steps, cells were resuspended in 30 μl of FACS buffer and samples were measured using the IntelliCyt HTFC device. EC50 values were calculated using the Graphpad Prism software. G-361 melanoma cell line expresses human PMEL17 at a lower level compared to the HKB11-human PMEL17 overexpressing cell line, and therefore allows a more precise ranking of the clones depending on their apparent affinity on cells.
(§2) The cross-specificity of the IgGs was evaluated in does response FACS on G-361 (human melanoma), HKB11-cyno-PMEL17, HKB11-rat PMEL17 and B16-F10 (mouse PMEL17 expressing melanoma) (Table 3). Testing on G-361 was performed using a detection antibody labelled to PE. In contrast, an Alexa-Fluor labelled detection antibody had to be used for testing the candidates on the other cell lines so as to reach detectable signals.

Test [3] relates to UACC-62. Put plainly: FACS titration of IgGs on UACC-62 cells. It counts as binding. To be noted: UACC-62, PE-labelled detection antibody. On the procedure:
as §1

Test [4] concerns rat PMEL17. Put plainly: Apparent affinity by FACS titration of IgGs on HKB11-rat PMEL17 cells. It counts as binding. To be noted: Alexa Fluor. The method, then:
Purified IgGs were titrated on a variety of PMEL17 expressing and PMEL17 non expressing cell lines (for control) to determine EC50 values. Cells were harvested using Accutase, adjusted to ˜4×10^6 cells/ml into FACS buffer (PBS, 3% FCS and 0.02% Na-Azide) and kept on ice to avoid internalization. 15 μl of cell suspension/well were transferred into 384 well V-bottom plates (Greiner, Cat #781280) and incubated with 15 μl of IgGs at different concentrations (most commonly from 200 to 3.5×10−3 nM) for 1 hour at 4° C., gently shaking. Following incubation, cells were washed three times with FACS buffer. After each washing step, cells were centrifuged (250×g, 5 min, 4° C.) and carefully resuspended. […] After 3 washing steps, cells were resuspended in 30 μl of FACS buffer and samples were measured using the IntelliCyt HTFC device. EC50 values were calculated using the Graphpad Prism software. […]
(§3) The cross-specificity of the IgGs was evaluated in does response FACS on G-361 (human melanoma), HKB11-cyno-PMEL17, HKB11-rat PMEL17 and B16-F10 (mouse PMEL17 expressing melanoma) (Table 3). […]

In test [5] the test system is PMEL17. Put plainly: Cross-reactivity (cross-specificity profile) of anti-PMEL17 IgGs in dose response FACS. To be noted: h human, c cyno, r rat, m mouse. On the set-up: key: h/c/r/m: human/cyno/rat/mouse; h/c/r: human/cyno/rat; h/c/(m): human/cyno/mouse; h/c: human/cyno. It counts as binding. The method, then:
as §2
IgGs were classified into several epitope groups according to their cross-specificity profiles.

The target of test [6] is T3, human PMEL17 (Homo sapiens, UniProt P40967).
T3 construct: G-361 melanoma cell line expresses human PMEL17 at a lower level compared to the HKB11-human PMEL17 overexpressing cell line; endogenous in cells; host or cells: G-361 (human melanoma)
T3 sequence (P40967 25-661): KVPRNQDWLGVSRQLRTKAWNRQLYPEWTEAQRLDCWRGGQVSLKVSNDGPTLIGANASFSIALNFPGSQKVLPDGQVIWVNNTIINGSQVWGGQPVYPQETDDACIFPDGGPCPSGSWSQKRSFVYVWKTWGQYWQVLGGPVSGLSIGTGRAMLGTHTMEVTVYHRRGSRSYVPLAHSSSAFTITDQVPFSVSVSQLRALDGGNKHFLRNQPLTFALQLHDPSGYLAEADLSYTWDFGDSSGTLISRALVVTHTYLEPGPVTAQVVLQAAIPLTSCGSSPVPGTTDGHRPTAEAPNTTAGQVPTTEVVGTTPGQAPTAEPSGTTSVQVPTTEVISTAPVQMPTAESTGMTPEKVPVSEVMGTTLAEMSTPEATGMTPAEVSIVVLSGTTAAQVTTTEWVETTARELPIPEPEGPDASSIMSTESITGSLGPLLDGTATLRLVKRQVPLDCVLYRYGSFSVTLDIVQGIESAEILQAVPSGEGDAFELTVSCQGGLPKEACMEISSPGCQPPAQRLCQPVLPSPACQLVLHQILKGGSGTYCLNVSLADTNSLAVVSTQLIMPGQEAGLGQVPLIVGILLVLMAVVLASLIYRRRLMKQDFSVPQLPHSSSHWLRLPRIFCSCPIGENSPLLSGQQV
Put plainly: Apparent affinity by FACS titration of IgGs on G-361 melanoma cell line. It is filed as binding. To be noted: G-361, PE-labelled detection antibody; read-out: FACS EC50 (nM) G-361 (PE). The method, then:
as §1, §3
Background: Flow cytometry measures light scatter and fluorescence of single cells or particles in a stream.

By EC50 is commonly meant the concentration at which the effect is half-maximal.

B1: G1 LC 3J: anti-PMEL antibody G1 with 3J light chain (antibody, V domains shown)
VH: QVQLVQSGAEVKKPGSSVKVSCKASGGTFSDYAITWVRQAPGQGLEWMGGIIPIFGTANYAQKFQGRVTITADESTSTAYMELSSLRSEDTAVYYCAREGGLLTDISYSRYWFAYWGQGTLVTVSS
VL: SYELTQPLSVSVALGQTARITCSGDALRDKFVYWYQQKPGQAPVLVIYDDNNRPSGIPERFSGSNSGNTATLTISRAQAGDEADYYCQSWDHSYSLVVFGGGTKLTVL
B1: in test [1], the epitope binning entry is “bind to different epitopes”.

B2: Y010417: anti-PMEL17 antibody (IgG) (antibody, V domains shown)
VH: EVQLVQSGAEVKKPGESLKISCKGSGYSFTSYWIGWVRQMPGKGLEWMGIIYPGDSDTRYSPSFQGQVTISADKSISTAYLQWSSLKASDTAMYYCARGSSAASGLSGDLWGQGTLVTVSS
VL: DIQMTQSPSSLSASVGDRVTITCRASQSISSYLNWYQQKPGKAPKLLIYAASSLQSGVPSRFSGSGSGTDFTLTISSLQPEDFATYYCQQDYYSPFTFGQGTKVEIK
Regarding B2, the EC50 was above 100 nM in test [2], above 100 nM in test [4] and 2.8 nM in test [6]. Moreover, the “UACC-62 (PE)” value in test [3] was “Negative”. The “Cross spe profile (based on C14 detection ab)” value in test [5] is on record as “h/c”.

The values are drawn from US11779649B2, “Antibodies to PMEL17 and conjugates thereof” (Novartis AG, priority 2018, dated 2023).
